Reference: patent US20050170468A1 (published 2005)

How the values were obtained:
Assay in all cases: radiolabeled ligand binding assay on stably transfected BHK cells
[1] = molecular target: T1, IL-20RB (full-length, on cells, without transfected IL-20RA) (human, UniProt Q6UXL0 30-311)
T1 construct: also called DIRS1; pDIRS1
T1 sequence: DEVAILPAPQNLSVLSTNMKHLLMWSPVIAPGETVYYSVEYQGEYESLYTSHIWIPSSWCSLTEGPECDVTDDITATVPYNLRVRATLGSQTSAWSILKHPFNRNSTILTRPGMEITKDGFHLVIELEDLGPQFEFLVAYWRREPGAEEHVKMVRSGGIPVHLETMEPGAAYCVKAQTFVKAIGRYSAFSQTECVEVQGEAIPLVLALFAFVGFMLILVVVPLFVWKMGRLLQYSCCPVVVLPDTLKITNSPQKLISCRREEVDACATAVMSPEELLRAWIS
Experimental: (§1) The specificity and affinity of IL-20 for its receptor was determined using BHK cells stably transfected with IL-20RA, IL-20RB or both receptor subunits. […] Binding of ¹²⁵I-labeled IL-20 was eliminated in the presence of 100-fold excess of unlabeled IL-20 but not with 100-fold excess of the unrelated cytokine, IL-21.

[2] = molecular target: T2, IL-20RA (full-length, on cells, without transfected IL-20RB) (human, UniProt Q9UHF4 30-553)
T2 construct: Also used as the target of the anti-IL-20RA antibody on human lung tissue, the positive control 'known with IL-20RA expression'; also called ZcytoR7; BaF3/KZ134/IL-20RA only cells
T2 sequence: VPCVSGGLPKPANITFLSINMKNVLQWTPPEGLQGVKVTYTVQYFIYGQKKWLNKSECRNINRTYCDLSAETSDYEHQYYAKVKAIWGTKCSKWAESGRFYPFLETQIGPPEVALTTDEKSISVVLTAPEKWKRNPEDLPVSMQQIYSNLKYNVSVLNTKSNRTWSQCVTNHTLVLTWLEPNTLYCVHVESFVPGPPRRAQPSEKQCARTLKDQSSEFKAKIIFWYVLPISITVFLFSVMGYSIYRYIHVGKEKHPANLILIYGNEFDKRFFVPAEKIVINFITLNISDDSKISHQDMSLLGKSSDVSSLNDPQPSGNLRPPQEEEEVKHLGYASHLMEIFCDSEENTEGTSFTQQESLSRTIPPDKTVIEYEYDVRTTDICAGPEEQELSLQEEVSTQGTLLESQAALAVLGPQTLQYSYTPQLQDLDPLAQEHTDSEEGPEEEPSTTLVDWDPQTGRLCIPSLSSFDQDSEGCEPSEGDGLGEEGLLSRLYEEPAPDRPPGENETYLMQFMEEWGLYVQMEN
Experimental: as §1

[3] = molecular target: T3, IL-20RA/IL-20RB heterodimeric receptor (on cells) (human, UniProt Q9UHF4 30-553; Q6UXL0 30-311)
T3 construct: Both subunits are on the same cell (COS, BHK or BaF3 transfectants, or HaCaT endogenously); also called IL-20 receptor; ZcytoR7/pDIRS1
T3 sequence 1: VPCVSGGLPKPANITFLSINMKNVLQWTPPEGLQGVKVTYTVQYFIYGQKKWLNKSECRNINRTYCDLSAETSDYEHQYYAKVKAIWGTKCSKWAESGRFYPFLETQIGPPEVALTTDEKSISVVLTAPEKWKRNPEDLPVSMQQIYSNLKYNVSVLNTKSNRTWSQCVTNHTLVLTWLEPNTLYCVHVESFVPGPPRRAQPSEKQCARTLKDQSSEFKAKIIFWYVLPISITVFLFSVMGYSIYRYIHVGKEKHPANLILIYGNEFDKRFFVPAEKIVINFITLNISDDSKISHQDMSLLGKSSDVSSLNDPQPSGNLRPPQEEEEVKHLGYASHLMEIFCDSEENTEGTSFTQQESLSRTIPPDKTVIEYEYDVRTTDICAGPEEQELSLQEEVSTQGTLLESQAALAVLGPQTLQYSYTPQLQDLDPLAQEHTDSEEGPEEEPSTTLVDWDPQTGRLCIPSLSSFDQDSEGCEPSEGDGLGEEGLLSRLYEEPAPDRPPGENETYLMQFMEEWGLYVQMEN
T3 sequence 2: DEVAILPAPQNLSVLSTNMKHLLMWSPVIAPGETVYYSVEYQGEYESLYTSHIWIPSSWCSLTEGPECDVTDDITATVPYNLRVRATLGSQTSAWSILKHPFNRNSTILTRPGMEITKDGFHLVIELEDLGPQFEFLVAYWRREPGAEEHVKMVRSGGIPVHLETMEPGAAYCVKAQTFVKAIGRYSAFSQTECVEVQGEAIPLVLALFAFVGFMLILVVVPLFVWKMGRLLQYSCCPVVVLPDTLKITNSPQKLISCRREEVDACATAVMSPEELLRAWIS
Experimental: as §1

- binding result [1]: no binding
- binding result [2]: no binding
- Kd [3]: ~1.5 nM
B1: IL-20 (ligand)
chain: LKTLNLGSCVIATNLQEIRNGFSDIRGSVQAKDGNIDIRILRRTESLQDTKPANRCCLLRHLLRLYLDRVFKNYQTPDHYTLRKISSLANSFLTIKKDLRLCHAHMTCHCGEEAMKKYSQILSHFEKLEPQAAVVKALGELDILLQWMEETE
modifications: biotin label in Example 6; 125I label in Example 10
notes: also called Zcyto10; biotinylated IL-20 protein
